Experimental data as given in patent EP4644419A1 (Hangzhou Zhongmeihuadong Pharmaceutical Co., Ltd., dated 2025).
Values joined by “and” are separate entries in the source; they are usually repeats but may differ in a detail not shown here. Identical values can stand only once.

T1: human CD112R antigen protein huCD112R-His (Acro Biosysterm, PVG-H52H4) (human, UniProt Q6DKI7 41-171)
T1 construct: purchased; also called human antigen protein; not shown: His tag
T1 sequence (looked up): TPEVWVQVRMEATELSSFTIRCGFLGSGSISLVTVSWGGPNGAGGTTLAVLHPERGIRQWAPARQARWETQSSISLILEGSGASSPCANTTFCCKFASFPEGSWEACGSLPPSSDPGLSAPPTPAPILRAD

T2: human CD112R on GS-J2C/CD112R effector cells (human, UniProt Q6DKI7 1-326)
T2 sequence (looked up): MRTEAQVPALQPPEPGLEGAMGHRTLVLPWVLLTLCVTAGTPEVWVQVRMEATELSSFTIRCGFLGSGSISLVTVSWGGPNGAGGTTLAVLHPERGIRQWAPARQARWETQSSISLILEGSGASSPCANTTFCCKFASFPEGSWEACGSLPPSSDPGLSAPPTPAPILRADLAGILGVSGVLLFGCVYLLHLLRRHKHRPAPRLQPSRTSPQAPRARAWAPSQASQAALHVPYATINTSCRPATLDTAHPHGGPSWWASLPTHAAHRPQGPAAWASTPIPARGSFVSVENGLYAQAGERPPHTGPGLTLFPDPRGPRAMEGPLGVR

T3: monkey antigen protein (monkey CD112R, Uniprot ID: A0A2K5WVV8) (monkey, UniProt A0A2K5WVV8 41-171)
T3 sequence: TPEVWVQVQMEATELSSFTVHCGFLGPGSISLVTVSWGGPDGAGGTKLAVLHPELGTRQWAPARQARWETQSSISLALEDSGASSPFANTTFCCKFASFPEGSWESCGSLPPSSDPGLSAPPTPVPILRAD


What was measured:
[1] = target: T1, human CD112R antigen protein …; assay: SPR (Biacore X100), antibody captured on Protein A chip, huCD112R-His as analyte, 1:1 Langmuir
[2] = target: T2, human CD112R on GS-J2C/CD112R effector …; assay: cell-based or functional assay
[3] = target: T1, human CD112R antigen protein …; assay: ELISA, huCD112R-His coated on plate
[4] = target: T3, monkey antigen protein (monkey CD112R, …); assay: ELISA, monkey antigen protein (as Example 6.1)

Row | Binder | Kd [1] | EC50 (Blocking effects of the antibodies, reporter gene method) [2] [µg/mL] | EC50 [3] [pM] | EC50 [4] [pM]
1 | C155 (antibody, human IgG1, kappa, V domains shown) VH: EVQLVESGGGLVKPGGSLRLSCAASGFTFSDYYMYWVRQAPGKGLEWVATISDAGGYTYYPDSVKGRFTISRDNAKNSLYLQMNSLRAEDTAVYYCGREDLWGQGTLVTVSS VL: DIQMTQSPSSLSASVGDRVTITCRASQDIGYSLNWFQQKPGKAPRRLIYATSRLDSGVPKRFSGSGSGTDFTLTISSLQPEDFATYYCLQYASFPYTFGGGTKLEIKR | 603 pM | 0.082 | – | –
2 | C67 (antibody, human IgG1, kappa, V domains shown) VH: EAQLQQSGPELVKPGASVKISCKASGYTFTDYYMNWVKQSHGKSLDWIGDINPDNGGSTYNQKFKGKATLTVDKSSSTAYMELRSLTSEDSAVYYCSASGPPYVLLDYWGQGTSVIVSS VL: DIQMTQSPASLSASVGETVTITCQTSENIYSYLAWYQQKQGKSPQLLVYNTQTLAEGVPSRFSGSRSGAQFSLKINSLQPEDFGSYYCQHHYGVPLTFGAGTKLELKR | 20 pM | 0.03 | 60 | 80
3 | C101 (antibody, human IgG1, kappa, V domains shown) VH: EVQLQQSGPELVKPGSSVKISCEASGFTFADYNVDWVKQSHGKSLEWIGAINPNDGGTSYNQKFEGKATLTVDKSSTTAYMELRSLTSEDSAVYYCARWVNNDWYFDVWGTGTTVTVSS VL: DIVMTQSQKFMSTSVGDRVSITCKASQNVRSAVDWYQQKPGQSPKTLIHSASNRHTGVPDRFTGSGSGTDFTLTISNIQSEDLADYFCLQHWNYPYTFGGGTKLEVKR | 39.2 pM | – | 43 | 85
4 | C105 (antibody, human IgG1, kappa, V domains shown) VH: EVQLQQSGPELVKPGSSMKISCKASGYTFTDYSMDWVKQSHGKSLEWIGAINPNNGGTSYNQKFKDKATLTVDRSSSTAYMELRSLTSEDSAVYYCARWDSDYWYFDVWATGTTVTVSS VL: DIVMTQSQKFMSTSVGDRVSITCKASQNVRTAVDWYQQKPGQSPKALIYSASNRHTGVPDRFTGSGSGTDFTLTISNVQSEDLADYFCLQHWNYPYTFGGGTKLEIKR | 716 pM | – | 21 | 65
5 | C57 (antibody, human IgG1, kappa, V domains shown) VH: EVQLQQSGPVLVKPGASVKMSCKASGYIFTDYYMHWVKQSHGKSLEWIGIINPYNGDTSYNQKFKDKATLTVDKSSSTAYMELNSLTSEDSAVYYCARDSSNVGNAMDYWGQGTSVTVSS VL: DIQMTQTTSSLSASLGDRVTISCRASQDISNYLNWYLQKPDGTIKLLIYYSSRLHSGVPSRFSGSGSGTDYSLTISNLEQEDIATYFCQQGYTLPRTFGGGTKLEIIR | 130 pM and 219 pM | 0.061 | 34 | 77
6 | C114 (antibody, human IgG1, kappa, V domains shown) VH: QVQLQQSGAELVRPGTSVKMSCKAAGYTFTNSWINWVKQRPGHGLEWIGDIYPGNTFPNYNEKFKGKATLTADTSSSTAYMQLSSLTSEDSAVYYCTGGYFDVWGTGTTVTVSS VL: DIVMTQSPSSLSVSAGEKVTMSCKSSQSLLNSGNQKNFLAWYQQKPGQPPKLLIFGASTRQSGVPDRFTGSGSGTDFTLTISSVQAEDLAVYYCQNDHSYPYTFGGGTKLEMKR | 35.6 pM | – | 42 | 77
7 | C120 (antibody, human IgG1, kappa, V domains shown) VH: EVQLQQSGPEVVKPGASVKISCKASGNTLTDYFINWVKQSHGKNLEWIGDINPDNGAGNYNQKFKGKATLTVDKSSGTAFMGLRSLTSEDSAVYYCATLYFDYWGQGTTLTVSS VL: DIVMTQSPSSLSVSTGEKVTMSCRSSQSLLNSGNQKNYLAWYQQKPGQPPKLLIYGASTRESGVPDRFTGSGSGTDFTLTISSVQAEDLAIYYCQNAHTSPYTFGGGTRLEIKR | 76.9 pM | – | 35 | 62
8 | C64 (antibody, human IgG1, kappa, V domains shown) VH: EVMLVESGGDLVKPGGSLKLSCAASGFTFSSYFMSWVRQTPEKRLEWVATISGGGDKTYYLDILKGRFTISRDNAKNTLYLQMSSLRSEDTALYYCARHEDYAWYAMDYWGQGTSVTVSS VL: QIVLTQSPAIMSASPGEKVTMTCSASSSVNYIYWYQQKPGSSPRLLIYDTSNLASGVPVRFSGSGSGTSYSLTISRMEAEDAATYYCQQWSSYPLTFGAGTKLELKR | 800 pM | 0.039 | 34 | 54
9 | C71 (antibody, human IgG1, kappa, V domains shown) VH: EVILVESGGGLVKPGGSRKLSCAASGFTFSSYFMSWVRQTPEKRLEWVATISGGGDNTYYPDSVKGRFTISRDNAKNTLYLQMSSLRSEDTALYYCARHEDYEWYAMDYWGQGTSVTVSS VL: QIVLTQSPAIMSTSPGEKVTMTCSASSSVSYIYWYQQKPGSSPRLLIYDTSNLASGVPVRFSGSGSGTSYSLTISRMEAEDAATYYCQQWTSYPLTFGAGTKLELKR | 158 pM | 0.029 | 37 | 50
10 | C124 (antibody, human IgG1, kappa, V domains shown) VH: EVQLVESGGGLVKPGGSLKLSCAASGFTFSSFAMSWVRQTPAKRLESVATINNGGINTYYPDTVKGRFTVSRDNAKNTLYLQMSSLRSEDTAMYYCARHDDFLYYAMDYWGQGTSVTVSS VL: QIVLTQSPAIMSASPGEKVTMTCSASSSVSYMYWYQQKPGSSPRLLIYDTSNLASGVPVRFSGSGSGTSYSLTISRMEAEDAATYYCQQWTSYPLTFGAGTKLELKR | 243 pM | 0.015 | 33 | 59

Next, values leading:

Row | Kd [1] | EC50 (Blocking effects of the antibodies, reporter gene method) [2] [µg/mL] | EC50 [3] [pM] | EC50 [4] [pM] | Binder
11 | 946 pM | 0.096 | – | – | C156 (antibody, human IgG1, kappa, V domains shown) VH: EVQLVESGGGLVKPGGSLRLSCAASGFTFSDYYMYWVRQAPGKGLEWVATISDAGGYTYYPDSVKGRFTISRDNAKNSLYLQMNSLRAEDTAVYFCGREDLWGQGTLVTVSS VL: DIQMTQSPSSLSASVGDRVTITCRASQDIGYSLNWFQQKPGKAPKRLIYATSRLDSGVPKRFSGSGSGTDFTLTISSLQPEDFATYYCLQYASFPYTFGGGTKLEIKR
12 | 724 pM | 0.071 | – | – | C154 (antibody, human IgG1, kappa, V domains shown) VH: EVQLVESGGGLVKPGGSLRLSCAASGFTFSDYYMYWVRQAPGKGLEWVSTISDAGGYTYYPDSVKGRFTISRDNAKNSLYLQMNSLRAEDTAVYYCAREDLWGQGTLVTVSS VL: DIQMTQSPSSLSASVGDRVTITCRASQDIGYSLNWFQQKPGKAPKRLIYATSRLDSGVPKRFSGSGSGTDFTLTISSLQPEDFATYYCLQYASFPYTFGGGTKLEIKR
13 | 274 pM | 0.082 | 82 | 74 | C152 (antibody, human IgG1, kappa, V domains shown) VH: QVQLQQSGTILARPGASVKMSCRASDYTFTDYWIQWIKQRPGQGLEWIGAIFPENGDTRYTQKFKGRATLTADKSSSTAYMQVNSLTSEDSAVYYCATFINYVDYWGQGTTLTVSS VL: QIVLIQSPAIMSASPGEKVTMTCSASSSVNNIHWYQQKSGTSPKRWIYDTTKLTSGVPARFSGSGSGTSYSLTISSMEAEDAATYYCQQWNINPYTFGGGTKLEIKR
14 | 156 pM | 0.024 | 38 | 94 | C132 (antibody, human IgG1, kappa, V domains shown) VH: QVQLQQSGAELMKPGSSVNLSCKATDYTFTDYWINWVKQRPGHGLEWIGEILPGSVTTNYNEKFRGKATFTADTSSNTAYMQLSSLTSEDSAVYFCARGSDYSYYAMDYWGQGTSVTVSS VL: not shown
15 | 375 pM | 0.045 | 34 | – | C129 (antibody, human IgG1, kappa, V domains shown) VH: QVQLQQSGAELMTPGSSVKLSCKATGYTFTDYWIEWVKKRPGHGLEWIGEILPGYISTNYNEKFKDKATFTADTSSNTTYMQLSSLTSEDSAVYYCVLIVTTYYYFMDYWGQGTSVTVSS VL: QIVLTQSPAIMSASPGEKVTITCSASSSVTYMHWFQQKPGTSPKLWIYSTSNLASGVPVRFSGSGSGTSYSLTISRMEAEDAATYYCQQRSSYPWTFGGGTKLEIKR
16 | 550 pM | 0.029 | 39 | 52 | C138 (antibody, human IgG1, kappa, V domains shown) VH: EVQLVESGGGLVKPGGSLKLSCAASGFTFSSYAMSWVRQTPAKRLEWVATITSGDIRTYYPDTVKGRFTISRDNAKNTLYLQMRSLRSEDTAMYYCVGHDDFHFYAMDYWGQGTSVTVSS VL: QIVLTQSPAIMSASPGEKVTMTCSASSSVSYLYWYQQKPGSSPRLLIYDTSNLASGVPVRFSGSGSGTSYSLTLSRMEAEDAATYYCQQWSSYPLTFGAGTKLELKR
